{"source": "patent US20210206804A1", "note": "Primed or numbered codes have the meaning given here. The star is where a group is joined. (^19F)FBA = O=C(c1ccc([19F])cc1)*; PEG11′ = not defined here"}
{"target": "T1, αvβ6 integrin (purified, captured on the ELISA plate), P06756", "T1 chain 1": "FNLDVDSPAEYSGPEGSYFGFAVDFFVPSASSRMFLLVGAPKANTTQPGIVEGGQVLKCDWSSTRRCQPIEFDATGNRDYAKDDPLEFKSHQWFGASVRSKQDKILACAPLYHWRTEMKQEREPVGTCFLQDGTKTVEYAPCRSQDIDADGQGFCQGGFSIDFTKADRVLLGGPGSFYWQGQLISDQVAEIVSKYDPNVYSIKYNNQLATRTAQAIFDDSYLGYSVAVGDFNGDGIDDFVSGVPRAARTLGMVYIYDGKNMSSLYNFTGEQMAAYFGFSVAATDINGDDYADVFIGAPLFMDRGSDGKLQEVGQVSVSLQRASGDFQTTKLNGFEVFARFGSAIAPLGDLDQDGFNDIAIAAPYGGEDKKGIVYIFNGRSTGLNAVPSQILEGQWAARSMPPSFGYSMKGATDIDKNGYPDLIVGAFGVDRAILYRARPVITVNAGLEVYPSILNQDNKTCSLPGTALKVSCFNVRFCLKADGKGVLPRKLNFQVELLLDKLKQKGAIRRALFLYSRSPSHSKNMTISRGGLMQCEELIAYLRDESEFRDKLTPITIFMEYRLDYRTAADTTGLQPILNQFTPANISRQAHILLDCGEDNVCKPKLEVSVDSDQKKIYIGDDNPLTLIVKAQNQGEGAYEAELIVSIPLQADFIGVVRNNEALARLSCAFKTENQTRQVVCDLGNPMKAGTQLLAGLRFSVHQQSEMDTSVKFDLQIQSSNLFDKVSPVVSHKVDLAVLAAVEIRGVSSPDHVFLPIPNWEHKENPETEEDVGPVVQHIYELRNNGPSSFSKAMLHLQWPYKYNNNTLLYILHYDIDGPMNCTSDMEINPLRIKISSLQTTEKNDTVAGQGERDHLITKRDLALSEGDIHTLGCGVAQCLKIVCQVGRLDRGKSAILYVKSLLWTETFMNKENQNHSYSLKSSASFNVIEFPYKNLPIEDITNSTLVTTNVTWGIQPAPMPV", "T1 chain 2": "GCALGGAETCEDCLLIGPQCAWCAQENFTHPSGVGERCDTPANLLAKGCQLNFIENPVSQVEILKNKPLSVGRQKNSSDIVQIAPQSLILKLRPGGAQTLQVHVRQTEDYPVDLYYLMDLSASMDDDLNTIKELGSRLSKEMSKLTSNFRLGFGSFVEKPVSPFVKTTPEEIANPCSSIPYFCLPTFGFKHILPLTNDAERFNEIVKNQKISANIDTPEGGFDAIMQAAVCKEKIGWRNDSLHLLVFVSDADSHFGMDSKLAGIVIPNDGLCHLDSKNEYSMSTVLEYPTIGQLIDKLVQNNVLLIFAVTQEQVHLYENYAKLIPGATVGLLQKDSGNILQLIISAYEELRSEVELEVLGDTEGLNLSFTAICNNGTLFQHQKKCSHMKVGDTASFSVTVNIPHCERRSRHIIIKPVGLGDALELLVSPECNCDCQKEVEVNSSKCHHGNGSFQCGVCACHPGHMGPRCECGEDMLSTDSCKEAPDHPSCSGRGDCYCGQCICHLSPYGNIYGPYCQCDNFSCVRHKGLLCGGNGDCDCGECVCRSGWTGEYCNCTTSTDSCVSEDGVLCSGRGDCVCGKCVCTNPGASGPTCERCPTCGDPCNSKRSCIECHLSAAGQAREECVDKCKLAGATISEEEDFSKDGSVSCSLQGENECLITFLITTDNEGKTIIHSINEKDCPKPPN", "test": "competitive ELISA; captured αvβ6; competitor biotinylated fibronectin", "units": {"IC50": "nM"}}
{"binder": "{(^19F)FBA}-RSDLTPLF-NH2", "note": "[[^19F]FBA-RSDLTPLF-NH2]", "IC50": 7}
{"binder": "H-RSDLTPLFK((^19F)FBA)-NH2", "note": "[H-…([^19F]FBA)-NH2]", "IC50": 34}
{"binder": "{(^19F)FBA-PEG11′}-RSDLTPLF-NH2", "note": "[[^19F]FBA-PEG11-RSDLTPLF-NH2]", "IC50": 40}
{"binder": "{(^19F)FBA}-RSDLTPLF-{PEG11′-NH2}", "note": "[[^19F]FBA-RSDLTPLF-PEG11-NH2]", "IC50": 40}
{"binder": "{(^19F)FBA-PEG11′}-RSDLTPLF-{PEG11′-NH2}", "note": "[[^19F]FBA-PEG11-RSDLTPLF-PEG11-NH2]", "IC50": 25}
